{"source": "patent US20060089302A1", "about": "“Hsp70-derived peptides and uses thereof in the diagnosis and treatment of autoimmune diseases” (priority 2002, published 2006)", "molecules": {"B1": {"name": "hsp60: recombinant human hsp60 (StressGen, Canada), 60 kDa heat-shock protein (protein)", "chain": "AKDVKFGADARALMLQGVDLLADAVAVTMGPKGRTVIIEQSWGSPKVTKDGVTVAKSIDLKDKYKNIGAKLVQDVANNTNEEAGDGTTTATVLARSIAKEGFEKISKGANPVEIRRGVMLAVDAVIAELKKQSKPVTTPEEIAQVATISANGDKEIGNIISDAMKKVGRKGVITVKDGKTLNDELEIIEGMKFDRGYISPYFINTSKGQKCEFQDAYVLLSEKKISSIQSIVPALEIANAHRKPLVIIAEDVDGEALSTLVLNRLKVGLQVVAVKAPGFGDNRKNQLKDMAIATGGAVFGEEGLTLNLEDVQPHDLGKVGEVIVTKDDAMLLKGKGDKAQIEKRIQEIIEQLDVTTSEYEKEKLNERLAKLSDGVAVLKVGGTSDVEVNEKKDRVTDALNATRAAVEEGIVLGGGCALLRCIPALDSLTPANEDQKIGIEIIKRTLKIPAMTIAKNAGVEGSLIVEKIMQSSSEVGYDAMAGDFVNMVEKGIIDPTKVVRTALLDAAGVASLLTTAEVVVTEIPKEEKDPGMGAMGGMGGGMGGGMF"}}, "key": {"[1]": {"system": "peripheral blood mononuclear cells (PBMC) / T-cells", "test": "T-cell proliferation assay (3H-Thymidine incorporation, stimulation index)", "format": "cell-based, human", "conditions": "for T-cell proliferative response, S.I., Mean ± SD: group mean"}, "[2]": {"system": "serum IgG anti-hsp60, anti-hsp70, anti-hsp90, anti-tetanus toxoid", "test": "Determination of auto-antibodies (antibody capture ELISA on antigen-coated plates)", "format": "binding, human", "conditions": "for IgG antibodies to the antigen in serum, Mean ± SD: group mean", "procedure": "All of the serum samples that were collected were stored in aliquotes at −20° C. and thawed before each assay. Total human IgG anti-hsp60, anti-hsp70, and anti-hsp90, as well as anti-tetanus toxoid proteins were detected by the antibody capture-type enzyme immunoassay ELISA [Maggio, M. T. (1981) Enzyme Immunoassay, CRC Press, Boca Raton, USA]. 96-well micro titer plates (Dynatech) were coated with the protein according to the antibody being tested. Serum samples were distributed at dilutions in the range of 1:50 to 1:70 into the pre-coated wells for the protein detection assay. Thus, any IgG anti-hsp60, anti-hsp70, anti-hsp90, or anti-tetanus toxoid present should be bound by the immobilized peptide or protein. After washing off unbound material, a mouse monoclonal anti-human IgG antibody conjugated to alkaline phosphatase (AP) was added to the wells. After an additional washing step to remove any unbound anti-enzyme reagent, the AP substrate p-nitrophenyl phosphate (pNPP) solution was added. The intensity of the color developed was measured using an Anthos htll ELISA reader at λ=405 nm. The amount of antibody detected was represented as Units of Optical Density at λ=405 nm. Patients and control subjects were assayed in the same experiment.\nThe InStat 2.01 computer program was used for the statistical analysis. The results obtained from the samples of healthy individuals were used to determine the cutoff for each assay, which was established as the mean plus two standard deviations (SDs). […] The results were presented as the percentage of positive from the total tested group.\nLevels of IgG antibodies to hsp60, hsp70, and hsp90 were measured in the sera of 20 Type 1 Diabetes children (P1-P5, P7-P21; Table 3A) and two control groups, 10 normoglycemic children (Table 3B) and 15 healthy adult blood donors (Table 3C). The level of the antibodies was scored as positive when it was greater than the cut-off level (cut-off levels were established based on the mean value of antibody levels from the normoglycemic children plus two standard deviations)."}, "[3]": {"system": "peripheral blood mononuclear cells (PBMC) / T-cells", "conditions": "25 newly diagnosed Type 1 Diabetes adult patients; Abulafia-Lapid et al. 1999; cited from earlier work"}}, "note": "Values joined by “and” are separate entries in the source; they are usually repeats but may differ in a detail not shown here. Equal values may be shown once.", "data": [{"molecule": "B1", "values": [{"measurement": "T-cell proliferative response, Stimulation Index (S.I.)", "setting": "[1]", "value": 1.25}, {"measurement": "T-cell proliferative response, S.I., Mean ± SD", "setting": "[1]; Healthy subjects", "value": "1.79±0.74 and 1.7 ± 0.72"}, {"measurement": "T-cell response, in words", "setting": "[1]; Type 1 Diabetes adult patients (Table 1D), tested after more than 12 weeks", "value": "not seen"}, {"measurement": "T-cell proliferative response, S.I., Mean ± SD", "setting": "[1]; Type 1 Diabetes adult patients", "value": "1.22 ± 0.36"}, {"measurement": "Responding subjects (S.I.≥2)", "setting": "[1]; Type 1 Diabetes children", "value": 85, "unit": "%"}, {"measurement": "T-cell proliferative response, S.I., Mean ± SD", "setting": "[1]; Type 1 Diabetes children", "value": "3.6±2.6"}, {"measurement": "T-cell proliferative response, S.I., Mean ± SD", "setting": "[1]; Type 2 Diabetes patients", "value": "1.7 ± 0.75"}, {"measurement": "Responding subjects (S.I.≥2)", "setting": "[1]; healthy subjects / healthy blood donors", "value": 39, "unit": "%"}, {"measurement": "IgG antibodies to the antigen in serum, Mean ± SD", "setting": "[2]; Type 1 Diabetes children", "value": "0.6 Units of Optical Density at λ=405 nm"}, {"measurement": "Positive (antibody level above cut-off)", "setting": "[2]; Type 1 diabetes children (n=20), cut-off = mean of normoglycemic children plus two SD", "value": 45, "unit": "%"}, {"measurement": "Positive (antibody level above cut-off)", "setting": "[2]; Type 1 diabetes children (n=20), cut-off = mean of normoglycemic children plus two SD, listed as Hsp60", "value": 45, "unit": "%"}, {"measurement": "Positive (antibody level above cut-off)", "setting": "[2]; healthy adult blood donors (n=15)", "value": 6, "unit": "%"}, {"measurement": "Positive (antibody level above cut-off)", "setting": "[2]; healthy adult blood donors (n=15), listed as Hsp60", "value": 6.6, "unit": "%"}, {"measurement": "IgG antibodies to the antigen in serum, Mean ± SD", "setting": "[2]; healthy adult blood donors", "value": "0.61 ± 0.12 Units of Optical Density at λ=405 nm"}, {"measurement": "Positive (antibody level above cut-off)", "setting": "[2]; pediatric control serum donors / healthy children (n=10)", "value": 10, "unit": "%"}, {"measurement": "Positive (antibody level above cut-off)", "setting": "[2]; pediatric control serum donors / healthy children (n=10), listed as Hsp60", "value": 10, "unit": "%"}, {"measurement": "IgG antibodies to the antigen in serum, Mean ± SD", "setting": "[2]; pediatric control serum donors", "value": "0.45 ± 0.11 Units of Optical Density at λ=405 nm"}, {"measurement": "Patients tested positive (proliferative response)", "setting": "[3]", "value": 92, "unit": "%"}]}]}
